Results: paper PMC9482650, “Quantitative fragmentomics allow affinity mapping of interactomes” (Nature Communications, 2022)

How the values were obtained:
Assay in all cases: holdup assay
Set-up in all cases: key: below the threshold = too weak to quantify, mostly under pKd 3.1 to 4
[1] = biological target: T1, APBA2_1, Q99767
T1 sequence (Q99767 563-664, limits assumed, looked up): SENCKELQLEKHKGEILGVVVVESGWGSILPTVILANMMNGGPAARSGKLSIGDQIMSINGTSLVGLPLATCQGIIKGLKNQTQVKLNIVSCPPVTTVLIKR

[2] = biological target: T2, APBA2_2, Q99767
T2 sequence (Q99767 654-744, limits assumed, looked up): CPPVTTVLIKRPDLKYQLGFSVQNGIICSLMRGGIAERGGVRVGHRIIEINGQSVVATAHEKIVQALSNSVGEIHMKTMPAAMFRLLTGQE

[3] = biological target: T3, ARHGAP21, Q5T5U3
T3 sequence (Q5T5U3 45-169, limits assumed, looked up): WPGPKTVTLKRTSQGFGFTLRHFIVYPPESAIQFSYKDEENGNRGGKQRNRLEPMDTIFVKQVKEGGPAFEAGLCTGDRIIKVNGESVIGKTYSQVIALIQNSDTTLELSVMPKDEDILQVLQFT

[4] = biological target: T4, DFNB31_2, Q9P202
T4 sequence (Q9P202 274-371, limits assumed, looked up): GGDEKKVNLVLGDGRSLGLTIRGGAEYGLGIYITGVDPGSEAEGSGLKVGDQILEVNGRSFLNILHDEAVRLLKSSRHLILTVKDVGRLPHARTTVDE

[5] = biological target: DLG1_2, Q12959
[6] = biological target: DLG1_3, Q12959
[7] = biological target: DLG2_2, Q15700
[8] = biological target: T5, DLG3_1, Q92796
T5 sequence (Q92796 125-227, limits assumed, looked up): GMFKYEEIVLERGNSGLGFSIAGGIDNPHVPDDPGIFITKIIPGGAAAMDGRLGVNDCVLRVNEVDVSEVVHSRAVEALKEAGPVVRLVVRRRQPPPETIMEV

[9] = biological target: FRMPD2_1, Q68DX3
[10] = biological target: FRMPD4, Q14CM0
[11] = biological target: GIPC2, Q8TF65
[12] = biological target: GRID2IP_1, A4D2P6
[13] = biological target: T6, GRIP1_7, Q9Y3R0
T6 sequence (Q9Y3R0 999-1096, limits assumed, looked up): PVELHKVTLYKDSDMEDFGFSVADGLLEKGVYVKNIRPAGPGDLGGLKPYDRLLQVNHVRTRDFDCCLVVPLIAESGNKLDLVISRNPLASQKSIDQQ

[14] = biological target: GRIP2_7, Q9C0E4
[15] = biological target: HTRA2, O43464
[16] = biological target: IL16_4, Q14005
[17] = biological target: Inadl_2, Q8NI35
[18] = biological target: Inadl_5, Q8NI35
[19] = biological target: T7, LRRC7, Q96NW7
T7 sequence (Q96NW7 1440-1537, limits assumed, looked up): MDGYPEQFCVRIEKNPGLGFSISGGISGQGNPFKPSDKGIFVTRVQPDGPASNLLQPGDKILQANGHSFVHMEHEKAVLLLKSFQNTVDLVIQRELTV

[20] = biological target: MAGI2_2, Q86UL8
[21] = biological target: MAGI2_3, Q86UL8
[22] = biological target: T8, NHERF3_1, Q5T2W1
T8 sequence (Q5T2W1 4-100, limits assumed, looked up): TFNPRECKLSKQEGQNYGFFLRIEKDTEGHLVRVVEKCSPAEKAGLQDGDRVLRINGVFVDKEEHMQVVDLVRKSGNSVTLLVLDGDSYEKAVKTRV

[23] = biological target: T9, NHERF3_3, Q5T2W1
T9 sequence (Q5T2W1 238-333, limits assumed, looked up): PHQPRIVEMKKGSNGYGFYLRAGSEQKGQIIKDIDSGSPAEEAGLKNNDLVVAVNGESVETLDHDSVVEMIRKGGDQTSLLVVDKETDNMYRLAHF

[24] = biological target: T10, NHERF3_4, Q5T2W1
T10 sequence (Q5T2W1 373-468, limits assumed, looked up): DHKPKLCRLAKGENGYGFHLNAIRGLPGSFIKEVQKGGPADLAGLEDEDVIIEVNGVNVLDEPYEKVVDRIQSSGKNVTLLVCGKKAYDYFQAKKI

[25] = biological target: T11, PTPN13_1, Q12923
T11 sequence (Q12923 1088-1188, limits assumed, looked up): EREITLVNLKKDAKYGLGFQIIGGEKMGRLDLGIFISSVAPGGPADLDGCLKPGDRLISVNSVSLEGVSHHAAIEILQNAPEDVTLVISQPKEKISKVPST

[26] = biological target: T12, SIPA1L2, Q9P2F8
T12 sequence (Q9P2F8 945-1036, limits assumed, looked up): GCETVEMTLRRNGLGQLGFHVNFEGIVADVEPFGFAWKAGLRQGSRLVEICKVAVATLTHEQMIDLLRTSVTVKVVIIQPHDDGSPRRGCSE

[27] = plain residues with an end cap or a label only (N-terminal biotin on a linker: ado-ado)
[28] = modified: phospho on T at position -2 from the C-terminal residue

Measured: pKd

Inadl_2, Q8NI35, sequence (Q8NI35 238-335): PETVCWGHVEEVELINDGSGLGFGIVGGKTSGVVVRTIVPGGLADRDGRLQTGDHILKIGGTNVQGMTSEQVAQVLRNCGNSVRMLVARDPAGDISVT
Inadl_5, Q8NI35, sequence (Q8NI35 673-780): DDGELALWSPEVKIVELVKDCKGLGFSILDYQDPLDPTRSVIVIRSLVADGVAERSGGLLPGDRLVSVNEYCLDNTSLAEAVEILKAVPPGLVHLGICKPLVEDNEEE
FRMPD2_1, Q68DX3, sequence (Q68DX3 770-861): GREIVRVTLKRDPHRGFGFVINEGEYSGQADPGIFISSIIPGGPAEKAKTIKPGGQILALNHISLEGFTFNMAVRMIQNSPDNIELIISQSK
DLG2_2, Q15700, sequence (Q15700 189-283): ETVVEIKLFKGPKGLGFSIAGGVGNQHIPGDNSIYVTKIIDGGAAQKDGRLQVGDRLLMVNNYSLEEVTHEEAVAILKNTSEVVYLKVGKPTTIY
DLG1_3, Q12959, sequence (Q12959 457-571): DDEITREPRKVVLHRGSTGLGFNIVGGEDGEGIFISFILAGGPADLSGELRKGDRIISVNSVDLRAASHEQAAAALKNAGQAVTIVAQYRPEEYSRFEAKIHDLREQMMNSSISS
GIPC2, Q8TF65, sequence (Q8TF65 112-203): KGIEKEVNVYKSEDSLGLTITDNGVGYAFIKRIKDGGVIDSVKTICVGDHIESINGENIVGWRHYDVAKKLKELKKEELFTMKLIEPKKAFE
IL16_4, Q14005, sequence (Q14005 1229-1329): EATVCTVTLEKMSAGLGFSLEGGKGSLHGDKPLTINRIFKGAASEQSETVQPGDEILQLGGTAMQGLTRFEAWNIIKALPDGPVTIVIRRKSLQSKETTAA
MAGI2_2, Q86UL8, sequence (Q86UL8 410-522): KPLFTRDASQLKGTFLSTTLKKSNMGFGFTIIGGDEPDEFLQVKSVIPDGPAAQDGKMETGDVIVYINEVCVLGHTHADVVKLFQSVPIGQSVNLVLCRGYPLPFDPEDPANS
GRID2IP_1, A4D2P6, sequence (A4D2P6 1-87): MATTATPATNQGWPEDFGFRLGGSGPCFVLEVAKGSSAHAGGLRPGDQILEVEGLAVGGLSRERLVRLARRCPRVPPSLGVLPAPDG
GRIP2_7, Q9C0E4, sequence (Q9C0E4 934-1023): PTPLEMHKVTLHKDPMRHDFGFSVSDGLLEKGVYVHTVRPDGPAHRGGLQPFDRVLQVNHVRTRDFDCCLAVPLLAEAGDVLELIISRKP
FRMPD4, Q14CM0, sequence (Q14CM0 67-160): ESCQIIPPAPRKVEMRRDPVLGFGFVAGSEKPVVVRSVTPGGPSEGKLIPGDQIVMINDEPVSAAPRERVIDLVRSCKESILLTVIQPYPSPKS
DLG1_2, Q12959, sequence (Q12959 314-412): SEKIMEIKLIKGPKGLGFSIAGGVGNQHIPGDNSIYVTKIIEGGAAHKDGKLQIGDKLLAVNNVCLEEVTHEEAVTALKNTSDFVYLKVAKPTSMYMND
MAGI2_3, Q86UL8, sequence (Q86UL8 600-682): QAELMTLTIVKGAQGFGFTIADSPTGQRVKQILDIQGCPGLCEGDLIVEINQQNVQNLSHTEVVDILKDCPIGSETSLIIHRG
HTRA2, O43464, sequence (O43464 355-458): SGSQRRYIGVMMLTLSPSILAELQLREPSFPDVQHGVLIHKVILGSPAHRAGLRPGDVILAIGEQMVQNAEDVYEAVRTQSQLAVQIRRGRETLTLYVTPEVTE

B1: ADRA1D, P25100 (peptide)
chain: DYSNLRETDI
3.48: [19]; [27]
3.6: [8]; [27]
3.98: [3]; [27]
below the threshold: [1]; [27] | [2]; [27] | [4]; [27] | [6]; [27] | [9]; [27] | [10]; [27] | [12]; [27] | [13]; [27] | [14]; [27] | [15]; [27] | [16]; [27] | [17]; [27] | [18]; [27] | [20]; [27] | [21]; [27] | [22]; [27] | [23]; [27] | [24]; [27] | [25]; [27] | [26]; [27]
3.8: [11]; [27]
4.35: [7]; [27]
4.74: [5]; [27]

B2: TMEM178A, Q8NBL3 (peptide)
chain: QLKSGRDSTV
3.52: [1]; [27] | [4]; [27]
3.82: [8]; [27]
3.87: [11]; [27]
3.83: [16]; [27]
3.58: [18]; [27] | [24]; [27]
4.64: [5]; [27]
4: [3]; [27] | [20]; [27]
3.85: [6]; [27]
3.65: [15]; [27]
3.57: [25]; [27]
4.4: [7]; [27]
below the threshold: [2]; [27] | [9]; [27] | [12]; [27] | [13]; [27] | [17]; [27] | [19]; [27] | [21]; [27] | [22]; [27] | [23]; [27] | [26]; [27]
3.55: [14]; [27]
3.61: [10]; [27]

B3: SLCO1B1, Q9Y6L6 (peptide)
chain: SAGADSETHC
3.68: [22]; [27]
3.71: [11]; [27]
4.02: [3]; [27]
below the threshold: [1]; [27] | [2]; [27] | [4]; [27] | [5]; [27] | [6]; [27] | [7]; [27] | [8]; [27] | [9]; [27] | [10]; [27] | [12]; [27] | [13]; [27] | [14]; [27] | [15]; [27] | [16]; [27] | [17]; [27] | [18]; [27] | [19]; [27] | [20]; [27] | [21]; [27] | [23]; [27] | [24]; [27] | [25]; [27]
3.49: [26]; [27]

B4: HPV33-E6_-2P, P06427 (peptide)
chain: SRSRRRETAL
3.73: [10]; [28]
below the threshold: [1]; [28] | [2]; [28] | [4]; [28] | [5]; [28] | [6]; [28] | [7]; [28] | [8]; [28] | [9]; [28] | [11]; [28] | [12]; [28] | [13]; [28] | [14]; [28] | [15]; [28] | [16]; [28] | [17]; [28] | [18]; [28] | [19]; [28] | [20]; [28] | [21]; [28] | [22]; [28] | [23]; [28] | [24]; [28] | [25]; [28] | [26]; [28]
4.02: [3]; [28]
